Reference: the supplement of paper PMC10126150
± gives the standard deviation of the averaged measurements.

Tested on: ATP
Test: switch fluorescence ratio, 500 uM ATP over buffer (Cy3 cluster intensity, sum of 5 cycles each) (fold (ratio)); higher = stronger signal-on switching upon ATP binding; sequences stand for … in TCGTCGGCAGCGTCAGATGTGTATAAGAGACAGTTTTTTTTTTTTTTTTTTTTTTTTT…TC
Conditions: aptamer strand: ATP DNA aptamer (quencher-CACCTGGGGGAGTATTGCGGAGGAAGG + anchor), 100 nM annealed; ATP concentration: 500 uM
In short: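 Switching-strand clusters labelled with Cy3 on a modified Illumina MiSeq flow-cell were annealed to 100 nM quencher-labelled ATP aptamer, imaged in selection buffer, and re-imaged after 15 min with 500 uM ATP at 22 °C. This was done over five cycles with NaOH stripping and re-annealing in between. The fluorescence ratio is summed target-cycle over summed buffer-cycle Cy3 intensity per cluster, averaged per switch-domain sequence, excluding clusters outside 100-1000 RFU.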
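Note: ATP exposure 15 min at 22 °C before imaging.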

For TCCCATTTGG, the switch fluorescence ratio was 1.03 ± 0.072.
TCCCATTTTT showed a switch fluorescence ratio of 1.01 ± 0.038.
In the case of TCCCCGTCGA, the switch fluorescence ratio is reported as 1.88 ± 1.2.
Work on TCCCGGCAGA yielded a switch fluorescence ratio of 0.997 ± 0.013.
For TCCCGGGAAA, the switch fluorescence ratio was 1.04 ± 0.082.
With TCCCGTTATT the switch fluorescence ratio was 1.01 ± 0.025.
For TCCCTACGAT, the switch fluorescence ratio was 1.06 ± 0.016.
TCCCTTGGGT showed a switch fluorescence ratio of 1 ± 0.0092.
TCCCTTTCGA showed a switch fluorescence ratio of 1.21 ± 0.063.
TCCGACTCG gave a switch fluorescence ratio of 1.09 ± 0.041.
With TCCGAGCCTT the switch fluorescence ratio was 2.08 ± 0.12.
TCCGAGGGGT showed a switch fluorescence ratio of 1.67 ± 0.91.
In the case of TCCGAGTTGG, the switch fluorescence ratio is reported as 1.05 ± 0.023.
TCCGATTATG gave a switch fluorescence ratio of 1.0175 ± 0.00092.
In the case of TCCGCGGAG, the switch fluorescence ratio is reported as 1.15 ± 0.13.
TCCGCTTGAG showed a switch fluorescence ratio of 1.36 ± 0.016.
For TCCGGAGAAT, the switch fluorescence ratio was 1.79 ± 1.1.
In the case of TCCGGGGCAA, the switch fluorescence ratio is reported as 3.73 ± 2.
TCCGGGGCGG showed a switch fluorescence ratio of 1.11 ± 0.06.
TCCGGGGTCG gave a switch fluorescence ratio of 1.034 ± 0.0062.
With TCCGGGGTGT the switch fluorescence ratio was 1.26 ± 0.44.
TCCGGGTTGT was tested, and the switch fluorescence ratio was 1.04 ± 0.056.
TCCGGTAGTT was tested, and the switch fluorescence ratio was 1.06 ± 0.013.
With TCCGGTCAGC the switch fluorescence ratio was 1.13 ± 0.15.
For TCCGTAAACG, the switch fluorescence ratio was 1.09 ± 0.041.
TCCGTAGTGT showed a switch fluorescence ratio of 2.12 ± 0.37.
For TCCGTCCCCG, the switch fluorescence ratio was 1.35 ± 0.058.
Sequence TCCGTCGCAA has a switch fluorescence ratio of 2.23 ± 0.41.
With TCCGTCGGGG the switch fluorescence ratio was 1.01 ± 0.033.
For TCCGTGGGGA, the switch fluorescence ratio was 1.16 ± 0.25.
For TCCGTTGATA, the switch fluorescence ratio was 1.165 ± 0.01.
TCCGTTGCGG gave a switch fluorescence ratio of 1.03 ± 0.034.
For TCCGTTGGCT, the switch fluorescence ratio was 1.07 ± 0.062.
With TCCGTTTCTG the switch fluorescence ratio was 0.971 ± 0.018.
For TCCTAACTTG, the switch fluorescence ratio was 1.01 ± 0.014.
Work on TCCTAAGGGC yielded a switch fluorescence ratio of 1.04 ± 0.038.
TCCTAAGGGG gave a switch fluorescence ratio of 1.79 ± 1.
TCCTACTGGG showed a switch fluorescence ratio of 1.04 ± 0.028.
In the case of TCCTCAAATG, the switch fluorescence ratio is reported as 1.607 ± 0.002.
With TCCTCAGGTG the switch fluorescence ratio was 4.07 ± 0.33.
TCCTCAGTGC was tested, and the switch fluorescence ratio was 1.93 ± 0.13.
For TCCTCATTTG, the switch fluorescence ratio was 1.005 ± 0.0078.
Sequence TCCTCGAGCT has a switch fluorescence ratio of 1.82 ± 1.2.
TCCTCTTAAG was tested, and the switch fluorescence ratio was 1.09 ± 0.03.
With TCCTGAATGA the switch fluorescence ratio was 1 ± 0.03.
With TCCTGAGGCG the switch fluorescence ratio was 1.02 ± 0.022.
TCCTGATTTT was tested, and the switch fluorescence ratio was 1.02 ± 0.037.
Sequence TCCTGCTCCG has a switch fluorescence ratio of 1.56 ± 0.13.
TCCTGCTGTT was tested, and the switch fluorescence ratio was 0.998 ± 0.02.
TCCTGGGGTC gave a switch fluorescence ratio of 1.05 ± 0.043.
With TCCTGGTGCG the switch fluorescence ratio was 1.13 ± 0.024.
In the case of TCCTGTTACA, the switch fluorescence ratio is reported as 1.03 ± 0.017.
Work on TCCTTGATCC yielded a switch fluorescence ratio of 1.02 ± 0.089.
Work on TCCTTGATTG yielded a switch fluorescence ratio of 0.974 ± 0.057.
In the case of TCCTTGGCTT, the switch fluorescence ratio is reported as 1.47 ± 0.49.
Work on TCCTTGGGGA yielded a switch fluorescence ratio of 1.08 ± 0.086.
TCCTTGTGGT gave a switch fluorescence ratio of 0.973 ± 0.037.
TCCTTTGGAT gave a switch fluorescence ratio of 1.05 ± 0.049.
TCCTTTGTAT was tested, and the switch fluorescence ratio was 1.1 ± 0.015.
Sequence TCCTTTTAAC has a switch fluorescence ratio of 1.25 ± 0.085.
For TCGAAATATT, the switch fluorescence ratio was 1.55 ± 0.81.
TCGAACGTTT gave a switch fluorescence ratio of 1.324 ± 0.0088.
TCGAAGAGTT gave a switch fluorescence ratio of 0.994 ± 0.033.
In the case of TCGAAGGGCG, the switch fluorescence ratio is reported as 1.021 ± 0.0057.
TCGAATGGCC was tested, and the switch fluorescence ratio was 0.994 ± 0.024.
TCGACCGATT gave a switch fluorescence ratio of 1.03 ± 0.037.
In the case of TCGACGGGAT, the switch fluorescence ratio is reported as 2.42 ± 0.31.
Sequence TCGAGAAGGT has a switch fluorescence ratio of 0.993 ± 0.054.
In the case of TCGAGAGAGG, the switch fluorescence ratio is reported as 1.01 ± 0.049.
For TCGAGATCCG, the switch fluorescence ratio was 0.996 ± 0.018.
TCGAGCAGGG showed a switch fluorescence ratio of 1.07 ± 0.055.
In the case of TCGAGGCACT, the switch fluorescence ratio is reported as 1.28 ± 0.17.
Work on TCGAGGCGGG yielded a switch fluorescence ratio of 1.18 ± 0.21.
TCGAGGGAGG was tested, and the switch fluorescence ratio was 0.994 ± 0.075.
For TCGAGGGGGT, the switch fluorescence ratio was 0.986 ± 0.054.
In the case of TCGAGGTATA, the switch fluorescence ratio is reported as 2.94 ± 2.6.
TCGAGTATAT showed a switch fluorescence ratio of 0.981 ± 0.021.
TCGAGTCGTG was tested, and the switch fluorescence ratio was 0.9922 ± 0.0054.
With TCGATAGGGA the switch fluorescence ratio was 1.01 ± 0.03.
In the case of TCGATGCGTG, the switch fluorescence ratio is reported as 1.01 ± 0.011.
With TCGATGTTTC the switch fluorescence ratio was 1.01 ± 0.026.
Work on TCGATTGGTG yielded a switch fluorescence ratio of 1.01 ± 0.013.
In the case of TCGATTTGGT, the switch fluorescence ratio is reported as 0.9749 ± 0.008.
With TCGATTTTTT the switch fluorescence ratio was 1.01 ± 0.028.
TCGCAGCTTG was tested, and the switch fluorescence ratio was 1.05 ± 0.029.
TCGCATAGGT gave a switch fluorescence ratio of 1.1 ± 0.12.
Work on TCGCCGCTTT yielded a switch fluorescence ratio of 1.76 ± 0.11.
Sequence TCGCCGTATG has a switch fluorescence ratio of 0.999 ± 0.018.
Work on TCGCGCAGAA yielded a switch fluorescence ratio of 1.061 ± 0.0063.
For TCGCGCGGTA, the switch fluorescence ratio was 1.007 ± 0.01.
With TCGCGCTATT the switch fluorescence ratio was 1.34 ± 0.39.
In the case of TCGCGGGCTA, the switch fluorescence ratio is reported as 1.04 ± 0.046.
For TCGCGGTCGG, the switch fluorescence ratio was 0.997 ± 0.015.
For TCGCGGTGGC, the switch fluorescence ratio was 1 ± 0.029.
In the case of TCGCGTTTCT, the switch fluorescence ratio is reported as 1.03 ± 0.088.
TCGCGTTTTT showed a switch fluorescence ratio of 0.994 ± 0.031.
TCGCTAACGG was tested, and the switch fluorescence ratio was 1.07 ± 0.018.
With TCGCTCCTGG the switch fluorescence ratio was 1 ± 0.046.
For TCGCTCTGTT, the switch fluorescence ratio was 0.991 ± 0.011.
For TCGCTTGCGG, the switch fluorescence ratio was 1 ± 0.032.
Sequence TCGCTTGGGG has a switch fluorescence ratio of 1 ± 0.013.
In the case of TCGCTTTTTG, the switch fluorescence ratio is reported as 1.01 ± 0.027.
Work on TCGGAACTCG yielded a switch fluorescence ratio of 0.9824 ± 0.0063.
Sequence TCGGAAGTAT has a switch fluorescence ratio of 0.9629 ± 0.0083.
For TCGGACGGAA, the switch fluorescence ratio was 2.17 ± 0.21.
In the case of TCGGACGGGG, the switch fluorescence ratio is reported as 1.03 ± 0.015.
TCGGAGCAGG was tested, and the switch fluorescence ratio was 1.4 ± 0.058.
In the case of TCGGAGGGAA, the switch fluorescence ratio is reported as 1.03 ± 0.027.
For TCGGAGGGGA, the switch fluorescence ratio was 1 ± 0.02.
TCGGAGGTCC showed a switch fluorescence ratio of 0.958 ± 0.029.
With TCGGAGTCTC the switch fluorescence ratio was 1.127 ± 0.0029.
TCGGATAAGT gave a switch fluorescence ratio of 1.01 ± 0.034.
TCGGATTAAT was tested, and the switch fluorescence ratio was 1.05 ± 0.043.
TCGGATTGGC showed a switch fluorescence ratio of 0.985 ± 0.034.
With TCGGATTTGT the switch fluorescence ratio was 1.01 ± 0.041.
In the case of TCGGCCAGGT, the switch fluorescence ratio is reported as 1.5 ± 0.046.
With TCGGCGAAGG the switch fluorescence ratio was 1.01 ± 0.082.
In the case of TCGGCGGTCT, the switch fluorescence ratio is reported as 0.999 ± 0.025.
TCGGCGGTGG was tested, and the switch fluorescence ratio was 0.963 ± 0.05.
With TCGGGAACGC the switch fluorescence ratio was 1.04 ± 0.032.
Work on TCGGGAGCAG yielded a switch fluorescence ratio of 1.03 ± 0.054.
TCGGGAGTCA gave a switch fluorescence ratio of 1.011 ± 0.0091.
TCGGGATCCT gave a switch fluorescence ratio of 1.35 ± 0.51.
Sequence TCGGGCCCGG has a switch fluorescence ratio of 1 ± 0.078.
In the case of TCGGGGAGAA, the switch fluorescence ratio is reported as 0.992 ± 0.073.
TCGGGGATAT gave a switch fluorescence ratio of 3.05 ± 2.9.
For TCGGGGATG, the switch fluorescence ratio was 1.52 ± 0.83.
Sequence TCGGGGCCGA has a switch fluorescence ratio of 0.969 ± 0.01.
TCGGGGCCGG showed a switch fluorescence ratio of 0.964 ± 0.037.
With TCGGGGGAAA the switch fluorescence ratio was 0.994 ± 0.036.
TCGGGGGATA showed a switch fluorescence ratio of 0.98 ± 0.039.
TCGGGGGCGG showed a switch fluorescence ratio of 1.02 ± 0.078.
For TCGGGGGGAG, the switch fluorescence ratio was 1.01 ± 0.018.
With TCGGGGGTAT the switch fluorescence ratio was 1.2 ± 0.36.
TCGGGGGTCA gave a switch fluorescence ratio of 0.9781 ± 0.0051.
For TCGGGGGTTT, the switch fluorescence ratio was 1 ± 0.038.
In the case of TCGGGTATCG, the switch fluorescence ratio is reported as 0.976 ± 0.037.
TCGGGTATTC showed a switch fluorescence ratio of 1.06 ± 0.14.
For TCGGGTCCAT, the switch fluorescence ratio was 1 ± 0.026.
TCGGGTGGGG gave a switch fluorescence ratio of 1.01 ± 0.014.
TCGGGTTGGG gave a switch fluorescence ratio of 0.975 ± 0.023.
Sequence TCGGGTTTTT has a switch fluorescence ratio of 1 ± 0.03.
In the case of TCGGTAAATT, the switch fluorescence ratio is reported as 1.05 ± 0.014.
With TCGGTACATA the switch fluorescence ratio was 1.037 ± 0.0066.
For TCGGTAGTG, the switch fluorescence ratio was 0.985 ± 0.028.
Work on TCGGTATGAC yielded a switch fluorescence ratio of 1.07 ± 0.029.
TCGGTATGTG was tested, and the switch fluorescence ratio was 1.03 ± 0.045.
In the case of TCGGTCAAAT, the switch fluorescence ratio is reported as 0.977 ± 0.011.
TCGGTCACCA showed a switch fluorescence ratio of 1.05 ± 0.028.
In the case of TCGGTCCGTT, the switch fluorescence ratio is reported as 0.9492 ± 0.0027.
TCGGTCCTTT was tested, and the switch fluorescence ratio was 0.99 ± 0.029.
For TCGGTCTAAC, the switch fluorescence ratio was 1 ± 0.015.
In the case of TCGGTGACGG, the switch fluorescence ratio is reported as 1.01 ± 0.017.
